As usually defined, the Kd is the equilibrium constant for the complex coming apart.

Assay [1] concerns the target T1, human PSMA (human, UniProt Q04609 44-750). The assay can be described thus: ELISA. In general terms: In an ELISA, binding on a coated surface is turned into a signal by an enzyme label.
For assay [2], the target named is T2, cynomolgus monkey PSMA (cynomolgus monkey, UniProt A0A2K5VNZ0 44-750).
T2 chain: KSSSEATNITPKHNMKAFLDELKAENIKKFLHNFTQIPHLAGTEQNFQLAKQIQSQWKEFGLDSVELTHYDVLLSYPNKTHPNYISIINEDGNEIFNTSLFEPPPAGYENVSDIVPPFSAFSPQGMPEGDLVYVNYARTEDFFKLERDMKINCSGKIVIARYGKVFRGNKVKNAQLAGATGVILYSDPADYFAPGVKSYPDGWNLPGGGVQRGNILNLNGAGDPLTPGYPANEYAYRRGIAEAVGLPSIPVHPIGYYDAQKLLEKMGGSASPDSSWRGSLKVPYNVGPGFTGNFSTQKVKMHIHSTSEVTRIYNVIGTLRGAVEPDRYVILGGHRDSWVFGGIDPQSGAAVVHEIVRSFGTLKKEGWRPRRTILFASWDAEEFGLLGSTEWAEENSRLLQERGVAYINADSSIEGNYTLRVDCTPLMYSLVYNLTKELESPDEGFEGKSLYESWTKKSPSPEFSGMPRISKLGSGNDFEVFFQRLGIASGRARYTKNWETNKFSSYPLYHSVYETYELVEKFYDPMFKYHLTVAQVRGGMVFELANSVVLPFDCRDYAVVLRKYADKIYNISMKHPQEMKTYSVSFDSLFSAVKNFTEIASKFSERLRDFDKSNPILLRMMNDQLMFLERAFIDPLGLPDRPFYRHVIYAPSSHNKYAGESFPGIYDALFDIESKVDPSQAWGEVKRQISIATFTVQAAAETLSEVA
The assay can be described thus: ELISA.

For assay [3], the target named is T1, human PSMA. The assay can be described thus: FACS; CHO-human PSMA cells. Background: In flow cytometry, cells or beads pass a laser one at a time.
For assay [4], the target named is T1, human PSMA. The assay can be described thus: FACS; Rat1(e) hPSMA cells, lot RC6589.
For assay [5], the target named is T2, cynomolgus monkey PSMA. The assay can be described thus: FACS; CHO-cyno PSMA cells.
In assay [6] the target is T1, human PSMA. Nature of the assay: SPR.
Assay [7] concerns the target T2, cynomolgus monkey PSMA. Nature of the assay: SPR. For orientation: Surface plasmon resonance follows binding to a sensor surface in real time, without labels.
Assay [8] deals with T1, human PSMA. The assay can be described thus: FACS; Rat1(e) hPSMA cells, lot RC6647.

T1 sequence (Q04609 44-750): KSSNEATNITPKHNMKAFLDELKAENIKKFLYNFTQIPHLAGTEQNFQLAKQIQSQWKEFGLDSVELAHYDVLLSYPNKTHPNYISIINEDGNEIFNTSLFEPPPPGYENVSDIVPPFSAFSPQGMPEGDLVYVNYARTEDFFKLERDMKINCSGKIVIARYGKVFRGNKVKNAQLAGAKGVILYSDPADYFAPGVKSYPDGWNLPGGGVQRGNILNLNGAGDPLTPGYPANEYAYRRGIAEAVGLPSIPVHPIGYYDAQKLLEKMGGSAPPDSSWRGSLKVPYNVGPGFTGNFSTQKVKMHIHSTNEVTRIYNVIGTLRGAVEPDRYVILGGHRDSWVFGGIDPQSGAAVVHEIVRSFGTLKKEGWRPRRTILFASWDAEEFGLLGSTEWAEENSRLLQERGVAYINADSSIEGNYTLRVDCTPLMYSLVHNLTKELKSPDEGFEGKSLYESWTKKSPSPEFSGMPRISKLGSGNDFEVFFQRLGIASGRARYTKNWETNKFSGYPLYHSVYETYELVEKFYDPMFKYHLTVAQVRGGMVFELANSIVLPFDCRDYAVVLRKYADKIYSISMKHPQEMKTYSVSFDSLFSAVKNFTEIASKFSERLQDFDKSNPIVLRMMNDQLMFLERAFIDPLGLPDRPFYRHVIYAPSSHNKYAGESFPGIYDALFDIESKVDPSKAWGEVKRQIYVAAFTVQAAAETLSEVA

B1: cHv75-2a7.G1(C99Y;L328C)k (antibody, V domains shown)
VH: EVQLVESGGGLVQPGGSLRLSCAASGITFSNYWMSWVRQAPGKGLEWVANIKKDGSEKFYVDSVKGRFTISRDNAKNSLYLQINSLRAEDTAMYYCAREIQLYLQHWGQGTLVTVSS
VL: DIQMTQSPSSVSASVGGRVTITCRASQGISNWLAWYQQKPGKAPKLLIYAASSLQSGVPSRFSGSGSGTDFTLTISNLQPEDFASYYCQQANSFPLTFGGGTKVEIKR
Take B1: the dissociation constant Kd came out at 0.074 nM in assay [1]; 0.063 nM in assay [2]; 0.094 nM in assay [3]; 0.205 nM in assay [4]; 0.166 nM in assay [5]; 11 nM in assay [6]. In assay [7], this molecule had a Kd of 36 nM.

B2: cHv75-2a11.G1(L328C)k (antibody, V domains shown)
VH: QVQLVESGGGVVQPGRSLRLSCAASGFTFSSYDMHWVRQAPGKGLEWVAVIWYDGSNKYYADSLKGRFTISRDNSKNTLYLQMNSLRAEDTAVYYCARVIAARTFYYYGMDVWGQGTTVTVSS
VL: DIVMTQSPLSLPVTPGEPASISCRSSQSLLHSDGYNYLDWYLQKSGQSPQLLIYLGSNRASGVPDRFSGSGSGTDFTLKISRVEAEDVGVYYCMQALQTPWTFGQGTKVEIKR
On to B2, for which the Kd was determined as 0.138 nM in assay [1]; 0.104 nM in assay [2]; 0.761 nM in assay [8]; 0.709 nM in assay [3]; 0.431 nM in assay [5]; 59 nM in assay [6]. In assay [7], this molecule showed a dissociation constant (Kd) of 47 nM.

These data come from patent US20230059690A1 (published 2023).
